From article PMC6570425, “Regulation of GLI1 by cis DNA elements and epigenetic marks”

B1: GBS #4 (dsDNA)
DNA 1: AGCATCCCGGGATCACCCACCGCGCCGGC
DNA 2: GCCGGCGCGGTGGGTGATCCCGGGATGCT
B2: GBS #6 (dsDNA)
DNA 1: TCTACACACAGACCACACAGGCAAAGCTC
DNA 2: GAGCTTTGCCTGTGTGGTCTGTGTGTAGA
B3: GBS #5 (dsDNA)
DNA 1: AAGGTCGAGTTGGGAGGTCTTGGATGCGG
DNA 2: CCGCATCCAAGACCTCCCAACTCGACCTT
B4: GBS #2 (dsDNA)
DNA 1: GGCGGCGACTTGGGTGGGCCGAGGAGGCA
DNA 2: TGCCTCCTCGGCCCACCCAAGTCGCCGCC
B5: GBS #3 (dsDNA)
DNA 1: AGGGGAGATATGGGTGGGCTGTGGAACGC
DNA 2: GCGTTCCACAGCCCACCCATATCTCCCCT
B6: GBS #1 (dsDNA)
DNA 1: CTCTGGCTCAGACCACCCTGCCTGCCCTT
DNA 2: AAGGGCAGGCAGGGTGGTCTGAGCCAGAG

How the values were obtained:
[1] = molecular target: GLI1 (aa 211-1106) (human, UniProt P08151 211-1106); assay: EMSA; Roche DIG gel shift kit binding buffer (1X from 5X; composition, salt and pH not given), 155 fmol probe, 20 pmol competitor, 4 C 20 min, 5% TBE gel; conditions: protein: recombinant; label: digoxigenin (or 32P); blunt
GLI1 (aa 211-1106), sequence (P08151 211-1106): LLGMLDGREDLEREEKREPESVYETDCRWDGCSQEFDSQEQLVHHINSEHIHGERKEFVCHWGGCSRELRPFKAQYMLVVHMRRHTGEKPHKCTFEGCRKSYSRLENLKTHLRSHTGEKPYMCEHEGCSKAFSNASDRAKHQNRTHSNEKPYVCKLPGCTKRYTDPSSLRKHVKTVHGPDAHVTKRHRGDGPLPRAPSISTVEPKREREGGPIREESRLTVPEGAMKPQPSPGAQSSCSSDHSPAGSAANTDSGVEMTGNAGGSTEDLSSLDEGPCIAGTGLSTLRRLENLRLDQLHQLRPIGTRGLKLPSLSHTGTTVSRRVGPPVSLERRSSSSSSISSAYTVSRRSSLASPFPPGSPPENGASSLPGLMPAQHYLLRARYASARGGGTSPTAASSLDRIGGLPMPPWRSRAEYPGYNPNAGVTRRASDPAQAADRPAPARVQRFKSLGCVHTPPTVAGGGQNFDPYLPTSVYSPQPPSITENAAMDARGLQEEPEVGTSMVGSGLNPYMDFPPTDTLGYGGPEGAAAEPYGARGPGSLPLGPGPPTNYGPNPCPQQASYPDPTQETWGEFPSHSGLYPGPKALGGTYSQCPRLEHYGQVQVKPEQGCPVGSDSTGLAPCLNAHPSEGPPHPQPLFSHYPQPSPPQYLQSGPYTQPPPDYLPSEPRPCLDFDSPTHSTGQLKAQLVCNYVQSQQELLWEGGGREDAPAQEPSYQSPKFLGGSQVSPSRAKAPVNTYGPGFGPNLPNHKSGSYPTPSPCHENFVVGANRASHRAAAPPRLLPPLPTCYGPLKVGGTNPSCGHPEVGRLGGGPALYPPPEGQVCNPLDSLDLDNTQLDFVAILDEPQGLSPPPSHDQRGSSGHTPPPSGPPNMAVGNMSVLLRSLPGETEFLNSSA

[2] = molecular target: GLI2 (aa 84-355) (human, UniProt P10070-1 84-355); assay: as above; conditions: protein: recombinant; tags: 6xHis; label: digoxigenin (or 32P); blunt
GLI2 (aa 84-355), sequence (P10070 412-683): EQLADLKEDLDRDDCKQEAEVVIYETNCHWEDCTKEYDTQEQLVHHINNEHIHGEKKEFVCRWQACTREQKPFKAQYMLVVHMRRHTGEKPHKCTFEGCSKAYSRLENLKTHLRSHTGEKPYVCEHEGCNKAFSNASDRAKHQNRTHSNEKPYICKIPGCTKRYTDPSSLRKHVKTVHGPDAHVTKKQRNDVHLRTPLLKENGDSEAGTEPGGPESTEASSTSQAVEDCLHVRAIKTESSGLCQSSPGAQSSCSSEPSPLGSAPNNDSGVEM

| Binder | binding result [1] | binding result [2] |
| --- | --- | --- |
| B1 | binds | binds |
| B2 | binds | binds |
| B3 | binds | binds |
| B4 | binds | binds |
| B5 | binds | binds |
| B6 | binds | binds |
